What was measured:
[1] = target: Ah‐BarR M103N (P ah‐barR promoter, mKate2 reporter) (Acidianus hospitalis, UniProt F4B5V3, M103N); assay: cell-based; format: cell-based; conditions: BS1 M103N; 5 mM glutamine, 20 mg/L naringenin (Figure A7)
Procedure: (§1) Reporter gene assays were performed as previously described (Bernauw et al., [2022]). pPRC6 and pITC variants (Table 1) were co‐transformed in E. coli MG1655 chemical competent cells using heat shock transformation. Transformant colonies of the Ah‐BarR biosensor strains were picked to inoculate wells of a transparent 96‐well plate (Greiner Bio‐One), each well filled with 200 µL of MOPS EZ Rich Defined medium (Teknova), prepared without the addition of the 5X EZ Supplement, after which the plate was incubated overnight in a ThermoMixer C (Eppendorf) at 30°C and 300 rpm. Next, a black 96‐well plate was filled with a naringenin solution prepared in ethanol (250 mg/L or 2.5 g/L), after which a Breathe‐Easy sealing membrane (Sigma‐Aldrich) was applied and the ethanol was evaporated in a ThermoMixer C (Eppendorf) at 75°C. […] Finally, the plate was sealed again using a Breathe‐Easy sealing membrane (Sigma‐Aldrich).
(§2) Plates were incubated at 30°C and 300 rpm for 40 h in a Synergy H1 microplate reader (BioTek) with measurements of OD600 and fluorescence (excitation wavelength: 588 nm, emission wavelength: 633 nm) being taken every 20 min. The gain was set to 140 for all measurements, except for the measurements with the amino acids (pools and separately), where the gain was set to 150. […] In addition, wells solely containing medium were measured as well to correct for the background signal.
(§3) Reporter expression was analyzed at t = 30 h, when all cultures had reached the stationary phase, by taking into account three subsequent time points (t–1, t, t+1). The corrected FL/OD600 value was calculated for each replicate (n = 4) as follows: FL/ODcor=FLt−1−FLmed,t−1/ODt−1−ODmed,t−1+FLt−FLmed,t/ODt−ODmed,t+FLt+1−FLmed,t+1/ODt+1−ODmed,t+1/3
(§4) Response curves were fitted to a Hill function of the shape P(M)=b+aM^n/θ^n+M^nforaβ−alanine−inducible responseb+aθ^n/θ^n+M^nforaβ−alanine−repressible response according to a previously published procedure (Landry et al., [2018]) with minor adaptations. […] Briefly, lmfit 1.1.0 was used to fit all replicates of a response curve to the appropriate Hill function using the Levenberg‐Marquardt algorithm (Moré, [1978]; Newville et al., [2016]). […] The dynamic range was estimated as μ=a/b .

[2] = target: Ah‐BarR M103T (P ah‐barR promoter, mKate2 reporter) (Acidianus hospitalis, UniProt F4B5V3, M103T); assay: cell-based; format: cell-based; conditions: BS1 M103T; 5 mM glutamine, 20 mg/L naringenin (Figure A7)
Chain of Ah‐BarR M103T (P ah‐barR promoter, mKate2 reporter) (F4B5V3 entry or part of it M103T): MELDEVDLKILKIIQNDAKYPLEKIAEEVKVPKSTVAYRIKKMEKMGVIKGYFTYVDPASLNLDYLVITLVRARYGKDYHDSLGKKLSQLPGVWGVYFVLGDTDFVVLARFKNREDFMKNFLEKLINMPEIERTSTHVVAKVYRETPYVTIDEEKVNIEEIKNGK
Procedure: as §1, §2, §3, §4

[3] = tested on: T1, Ah-BarR WT (Acidianus hospitalis), ORF:d4ab5e4b; assay: in-gel Cu-OP footprinting; conditions: 20 mM Tris-HCl pH 8.0, 50 mM NaCl, 0.4 mM EDTA, 0.1 mM DTT, 1 mM MgCl2, 12.5% glycerol, 25 ug/mL salmon sperm DNA, 25 min at 37 C (EMSA)
T1 sequence: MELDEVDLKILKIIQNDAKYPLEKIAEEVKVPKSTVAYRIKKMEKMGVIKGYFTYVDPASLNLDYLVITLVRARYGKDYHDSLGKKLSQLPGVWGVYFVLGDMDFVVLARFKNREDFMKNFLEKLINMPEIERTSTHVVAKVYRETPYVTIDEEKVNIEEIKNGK

[4] = tested on: T1, Ah-BarR WT (Acidianus hospitalis), ORF:d4ab5e4b; assay: EMSA; conditions: 20 mM Tris-HCl pH 8.0, 50 mM NaCl, 0.4 mM EDTA, 0.1 mM DTT, 1 mM MgCl2, 12.5% glycerol, 25 ug/mL salmon sperm DNA, 25 min at 37 C (EMSA)
[5] = tested on: T2, Ah-BarR trunc (Acidianus hospitalis), ORF:d4ab5e4b; assay: EMSA; conditions: 20 mM Tris-HCl pH 8.0, 50 mM NaCl, 0.4 mM EDTA, 0.1 mM DTT, 1 mM MgCl2, 12.5% glycerol, 25 ug/mL salmon sperm DNA, 25 min at 37 C (EMSA)
T2 sequence: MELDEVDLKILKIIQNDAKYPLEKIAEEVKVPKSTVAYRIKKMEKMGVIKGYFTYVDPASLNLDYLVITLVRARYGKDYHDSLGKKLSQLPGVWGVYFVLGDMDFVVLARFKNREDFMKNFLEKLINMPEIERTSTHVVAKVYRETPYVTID

[6] = tested on: Ah-BarR WT (Acidianus hospitalis); assay: EMSA; conditions: no beta-alanine; octamer concentration; 20 mM Tris-HCl pH 8.0, 50 mM NaCl, 0.4 mM EDTA, 0.1 mM DTT, 1 mM MgCl2, 12.5% glycerol, 25 ug/mL salmon sperm DNA, 25 min at 37 C (EMSA)

Chain of Ah‐BarR M103N (P ah‐barR promoter, mKate2 reporter) (F4B5V3 entry or part of it M103N): as the sequence (F4B5V3 entry or part of it M103T) above, with T103N counted along it

**Q.** With NC(=O)CC[C@H](N)C(=O)O [glutamine] as the compound, how does the “glutamine response of reporter expression” value [1] read?
**A.** did not lead to the acquisition of a glutamine‐specific response

**Q.** And the “glutamine response of reporter expression” value [2]?
**A.** did not lead to the acquisition of a glutamine‐specific response

**Q.** For “CCTTATACATTTTATCGACGAATAAGTTGAATATACAACTAAATAAAAAGGGATTATCTTGGAAATTATACAGAGACATTCCAAAGCAAGATTTAAACTATTGTACTTTTTACAATAGCTGTCCTAAAATACTTAAATTCCGTCTAAACTACTAGTATCGCATGGATG (double strand) [WT promoter short 168 bp]”, which binding [3] is on record?
**A.** binds

**Q.** How did the Kd [4] turn out when “CTTTAAGTCTACCTCGTCTAGCTCCATAATATATAATTAGAAGAGGTAATTTAAACCTTATACATTTTATCGACGAATAAGTTGAATATACAACTAAATAAAAAGGGATTATCTTGGAAATTATACAGAGACATTCCAAAGCAAGATTTAAACTATTGTACTTTTTACAATAGCTGTCCTAAAATACTTAAATTCCGTCTAAACTACTAGTATCGCATGGATGAAGATGTCGTTAAATTGGTTAAAGAACATACTTTCGGAACTTGGAAAGTTC (double strand) [WT promoter 274 bp]” was run?
**A.** 12 nM

**Q.** And the binding [4]?
**A.** binds

**Q.** What about the binding [5] of the same compound?
**A.** binds

**Q.** Which Kd [4] does the source give for “CTTTAAGTCTACCTCGTCTAGCTCCATAATATATAATTAGAAGAGGTAATTTAAACCTTATACATTTTATCGACGAATAAGTTGAATATACAATTTAATAAAAAGGGATTATCTTGGAAATTATACAGAGACATTCCAAAGCAAGATTTAAACTATTGTACTTTTTACAATAGCTGTCCTAAAATACTTAAATTCCGTCTAAACTACTAGTATCGCATGGATGAAGATGTCGTTAAATTGGTTAAAGAACATACTTTCGGAACTTGGAAAGTTC (double strand) [Promoter mutant 1 (mut1) 274 bp]” here?
**A.** 31 nM

**Q.** Which Kd [4] does the source give for “CTTTAAGTCTACCTCGTCTAGCTCCATAATATATAATTAGAAGAGGTAATTTAAACCTTATACATTTTATCGACGAATAAGTTGAATATACAATTTAATAAAAAGGGATTATCTTGGAAATTATATTTAGACATTCCAAAGCAAGATTTAAACTATTGTACTTTTTACAATAGCTGTCCTAAAATACTTAAATTCCGTCTAAACTACTAGTATCGCATGGATGAAGATGTCGTTAAATTGGTTAAAGAACATACTTTCGGAACTTGGAAAGTTC (double strand) [Promoter mutant 2 (mut2) 274 bp]” here?
**A.** 36 nM

**Q.** For “CTTTAAGTCTACCTCGTCTAGCTCCATAATATATAATTAGAAGAGGTAATTTAAACCTTATACATTTTATCGACGAATAAGTTGAATATACAATTTAATAAAAAGGGATTATCTTGGAAATTATATTTAGACATTCCAAAGCAAGATTTAAACTATTGTACTTTTTATTTTAGCTGTCCTAAAATACTTAAATTCCGTCTAAACTACTAGTATCGCATGGATGAAGATGTCGTTAAATTGGTTAAAGAACATACTTTCGGAACTTGGAAAGTTC (double strand) [Promoter mutant 3 (mut3) 274 bp]”, which binding [4] is on record?
**A.** no binding

**Q.** WT promoter 274 bp was tested. Which Kd [6] did it give?
**A.** 12 nM

Reference: article PMC10201364 (MicrobiologyOpen, 2023)
